Test results as given in article PMC11574045, “A cofactor-induced repressive type of transcription factor condensation can be induced by synthetic peptides to suppress tumorigenesis” (The EMBO Journal, 2024).

System: HEK293FT cells transfected with TF library
Assay: Screening of TF condensates based on fluorescent puncta
Assay type: cell-based
Settings: Figure 1B numerical data; TF library screen, one value per transcriptional factor
In short: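 HEK293FT, PEI transfection of TF library, 60 h; ±glucose 12 h; 4% PFA fix, 0.05% Triton X-100 permeabilization, 5% BSA block; anti-Flag/anti-GAL4 overnight at 4 °C, Alexa 488 secondary 1 h; high-content imaging, 50 fields/well.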

Row | Molecule | Z score of condensed fraction
1 | TRP63 (protein, UniProt Q9H3D4 1-680, looked up) Tumor protein 63: MNFETSRCATLQYCPDPYIQRFVETPAHFSWKESYYRSTMSQSTQTNEFLSPEVFQHIWDFLEQPICSVQPIDLNFVDEPSEDGATNKIEISMDCIRMQDSDLSDPMWPQYTNLGLLNSMDQQIQNGSSSTSPYNTDHAQNSVTAPSPYAQPSSTFDALSPSPAIPSNTDYPGPHSFDVSFQQSSTAKSATWTYSTELKKLYCQIAKTCPIQIKVMTPPPQGAVIRAMPVYKKAEHVTEVVKRCPNHELSREFNEGQIAPPSHLIRVEGNSHAQYVEDPITGRQSVLVPYEPPQVGTEFTTVLYNFMCNSSCVGGMNRRPILIIVTLETRDGQVLGRRCFEARICACPGRDRKADEDSIRKQQVSDSTKNGDGTKRPFRQNTHGIQMTSIKKRRSPDDELLYLPVRGRETYEMLLKIKESLELMQYLPQHTIETYRQQQQQQHQHLLQKQTSIQSPSSYGNSSPPLNKMNSMNKLPSVSQLINPQQRNALTPTTIPDGMGANIPMMGTHMPMAGDMNGLSPTQALPPPLSMPSTSHCTPPPPYPTDCSIVSFLARLGCSSCLDYFTTQGLTTIYQIEHYSMDDLASLKIPEQFRHAIWKGILDHRQLHEFSSPSHLLRTPSSASTVSVGSSETRGERVIDAVRFTLRQTISFPPRDEWNDFNFDMDARRNKQQRIKEEGE | -0.7687
2 | TRIP4 (protein, UniProt Q15650 2-581, looked up) Activating signal …: AVAGAVSGEPLVHWCTQQLRKTFGLDVSEEIIQYVLSIESAEEIREYVTDLLQGNEGKKGQFIEELITKWQKNDQELISDPLQQCFKKDEILDGQKSGDHLKRGRKKGRNRQEVPAFTEPDTTAEVKTPFDLAKAQENSNSVKKKTKFVNLYTREGQDRLAVLLPGRHPCDCLGQKHKLINNCLICGRIVCEQEGSGPCLFCGTLVCTHEEQDILQRDSNKSQKLLKKLMSGVENSGKVDISTKDLLPHQELRIKSGLEKAIKHKDKLLEFDRTSIRRTQVIDDESDYFASDSNQWLSKLERETLQKREEELRELRHASRLSKKVTIDFAGRKILEEENSLAEYHSRLDETIQAIANGTLNQPLTKLDRSSEEPLGVLVNPNMYQSPPQWVDHTGAASQKKAFRSSGFGLEFNSFQHQLRIQDQEFQEGFDGGWCLSVHQPWASLLVRGIKRVEGRSWYTPHRGRLWIAATAKKPSPQEVSELQATYRLLRGKDVEFPNDYPSGCLLGCVDLIDCLSQKQFKEQFPDISQESDSPFVFICKNPQEMVVKFPIKGNPKIWKLDSKIHQGAKKGLMKQNKAV | 0.1966
